# Laboratory results: patent US20180230469A1, “METHOD OF TREATING PAIN WITH AN ANTIBODY AGAINST NETRIN-4, UNC5B OR NEOGENIN” (OSAKA UNIVERSITY, priority 2013, published 2018)
# “Also recorded” adds a separate entry of the source.
# T1: SHP2 (Rattus norvegicus, UniProt P41499)
# T1 construct: SHP2 is expressed in the neurons of the dorsal horn of the spinal cord; from tissue; host or cells: spinal cord of living rats (in vivo, intrathecal administration)
# T1 sequence (P41499 1-593): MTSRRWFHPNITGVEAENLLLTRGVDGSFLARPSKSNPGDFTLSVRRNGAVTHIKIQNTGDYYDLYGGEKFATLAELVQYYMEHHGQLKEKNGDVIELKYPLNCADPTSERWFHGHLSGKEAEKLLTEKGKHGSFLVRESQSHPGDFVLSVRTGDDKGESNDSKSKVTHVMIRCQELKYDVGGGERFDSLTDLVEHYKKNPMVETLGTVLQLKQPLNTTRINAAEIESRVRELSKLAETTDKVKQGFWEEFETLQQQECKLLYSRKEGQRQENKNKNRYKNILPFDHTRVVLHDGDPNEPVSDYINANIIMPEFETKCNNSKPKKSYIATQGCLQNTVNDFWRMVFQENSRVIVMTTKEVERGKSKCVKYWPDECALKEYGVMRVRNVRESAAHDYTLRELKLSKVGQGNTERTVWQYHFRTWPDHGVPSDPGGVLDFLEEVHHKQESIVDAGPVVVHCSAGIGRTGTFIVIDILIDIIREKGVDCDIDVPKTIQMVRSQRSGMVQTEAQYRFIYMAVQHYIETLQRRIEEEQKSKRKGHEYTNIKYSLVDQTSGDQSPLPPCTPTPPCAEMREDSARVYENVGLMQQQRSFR
# B1: netrin-4: purified netrin-4 protein (R&D) dissolved in physiological saline (protein, UniProt Q9HB63 19-628, looked up)
# Netrin-4: GLSGVAGVSSRCEKACNPRMGNLALGRKLWADTTCGQNATELYCFYSENTDLTCRQPKCDKCNAAYPHLAHLPSAMADSSFRFPRTWWQSAEDVHREKIQLDLEAEFYFTHLIVMFKSPRPAAMVLDRSQDFGKTWKPYKYFATNCSATFGLEDDVVKKGAICTSKYSSPFPCTGGEVIFKALSPPYDTENPYSAKVQEQLKITNLRVQLLKRQSCPCQRNDLNEEPQHFTHYAIYDFIVKGSCFCNGHADQCIPVHGFRPVKAPGTFHMVHGKCMCKHNTAGSHCQHCAPLYNDRPWEAADGKTGAPNECRTCKCNGHADTCHFDVNVWEASGNRSGGVCDDCQHNTEGQYCQRCKPGFYRDLRRPFSAPDACKPCSCHPVGSAVLPANSVTFCDPSNGDCPCKPGVAGRRCDRCMVGYWGFGDYGCRPCDCAGSCDPITGDCISSHTDIDWYHEVPDFRPVHNKSEPAWEWEDAQGFSALLHSGKCECKEQTLGNAKAFCGMKYSYVLKIKILSAHDKGTHVEVNVKIKKVLKSTKLKIFRGKRTLYPESWTDRGCTCPILNPGLEYLVAGHEDIRTGKLIVNMKSFVQHWKPSLGRKVMDILKRECK
# B2: thermally denatured netrin-4: netrin-4 solution (40 ng/μL) heat-treated at 100° C. for 10 minutes (protein, UniProt Q9HB63 19-628, looked up)
# Netrin-4: GLSGVAGVSSRCEKACNPRMGNLALGRKLWADTTCGQNATELYCFYSENTDLTCRQPKCDKCNAAYPHLAHLPSAMADSSFRFPRTWWQSAEDVHREKIQLDLEAEFYFTHLIVMFKSPRPAAMVLDRSQDFGKTWKPYKYFATNCSATFGLEDDVVKKGAICTSKYSSPFPCTGGEVIFKALSPPYDTENPYSAKVQEQLKITNLRVQLLKRQSCPCQRNDLNEEPQHFTHYAIYDFIVKGSCFCNGHADQCIPVHGFRPVKAPGTFHMVHGKCMCKHNTAGSHCQHCAPLYNDRPWEAADGKTGAPNECRTCKCNGHADTCHFDVNVWEASGNRSGGVCDDCQHNTEGQYCQRCKPGFYRDLRRPFSAPDACKPCSCHPVGSAVLPANSVTFCDPSNGDCPCKPGVAGRRCDRCMVGYWGFGDYGCRPCDCAGSCDPITGDCISSHTDIDWYHEVPDFRPVHNKSEPAWEWEDAQGFSALLHSGKCECKEQTLGNAKAFCGMKYSYVLKIKILSAHDKGTHVEVNVKIKKVLKSTKLKIFRGKRTLYPESWTDRGCTCPILNPGLEYLVAGHEDIRTGKLIVNMKSFVQHWKPSLGRKVMDILKRECK
# modifications: heat-denatured
# notes: netrin-4 solution (40 ng/μL) heat-treated at 100° C. for 10 minutes
# Experiments:
# SHP2 = molecular target: T1, SHP2; experiment: von Frey filament test after intrathecal netrin-4 mixed with SHP inhibitor; type: in vivo; details: inhibitor 1 mM mixed with netrin-4 40 ng/μL, 10 μL intrathecal; for change in withdrawal threshold after administration of mixture with netrin-4: 12, 24 and 48 hours; for degree of reduction in withdrawal threshold at 24 hours after administration: vs netrin-4 alone
# Procedure: (§1) The von Frey filament test was used to measure the response to mechanical stimuli. Before the test, a plastic case was set onto a metallic mesh, and the pain model rat was put into the plastic case and acclimated to the environment for 5 to 10 minutes until settled. A filament (Semmes-Weinstein Von Frey Anesthesiometer, Muromachi Kikai Co., Ltd.) was applied to the center of the plantar surface of the hindpaw for 3 to 5 seconds, and the threshold for hindpaw withdrawal (g) was measured. After the measurement of the withdrawal thresholds of both the paws was completed, the animal used was identified from the ear tag and then returned to a breeding cage.
# (§2) A purified netrin-4 protein (R&D) was dissolved in physiological saline to give a 40 ng/μL netrin-4 solution. […] (Calbiochem), an inhibitor of SHPs, was dissolved at a concentration of 50 mM in sterilized water and kept refrigerated until use. The solution was diluted 50-fold with physiological saline before use. PTPi4 (bis(4-trifluoromethylsulfonamidophenyl)-1,4-diisopropylben zene, Protein Tyrosine Phosphatase Inhibitor IV, Calbiochem), an inhibitor of SHP2, was dissolved at a concentration of 16.4 mM in DMSO (dimethyl sulfoxide, Sigma-Aldrich) and kept refrigerated until use. The solution was diluted to a final concentration of 1 mM with physiological saline before use.
# In order to clarify whether the activation of SHP2 is required for the action of netrin-4 on the potentiation of nociceptive response, it was examined whether intrathecal administration of a SHPs inhibitor, NSC87877, or a SHP2 inhibitor, PTPi4 (bis(4-trifluoromethylsulfonamidophenyl)-1,4-diisopropylben zene, Protein Tyrosine Phosphatase Inhibitor IV), would cancel the effect of intrathecal administration of netrin-4. NSC87877 (final concentration: 1 mM) or PTPi4 (final concentration: 1 mM) was mixed with netrin-4 (final concentration: 40 ng/μL , and 10 uL of the mixture was infused from the rear end of the polyethylene tube retained in the medullary cavity. The von Frey filament test was conducted at 12, 24 and 48 hours after the administration to examine the change in withdrawal threshold.
# male Wistar rat = experiment: von Frey filament test after intrathecal administration of netrin-4 to rats; type: in vivo
# Procedure: as §1, §2
# In order to clarify the function of netrin-4 in the spinal cord in an in vivo setting, the change in nociceptive response after intrathecal administration of netrin-4 was examined. First, a polyethylene tube was inserted into the medullary cavity of an 8-week-old male Wistar rat. One week after the intubation, the von Frey filament test was conducted to confirm, the absence of intubation-caused motor dysfunction. Ten microliters of a netrin-4 solution (40 ng/μL) was infused from the rear end of the tube retained in the medullary cavity. Meanwhile, the same volume of physiological saline was administered to each animal of the control group. The von Frey filament test was conducted at 12, 24 and 48 hours after the administration to examine the change in withdrawal threshold.
# Ten microliters of a netrin-4 solution (40 ng/μL), a 10% netrin-4 solution (4 ng/μL) , a 1% netrin-4 solution (0.4 ng/μL) or a thermally denatured netrin-4 solution (prepared by heat treatment of a netrin-4 solution (40 ng/μL) at 100° C. for 10 minutes) was administered in the same manner as in Experiment 1, and the degree of the change in withdrawal threshold from before to 24 hours after the administration was calculated.
# [1] = system: glial cells or immune cells in the spinal cord; experiment: Immunostaining of Iba1, GFAP, CD3ε and CD45R in lumbar cord tissue after intrathecal netrin-4; type: in vivo, rat; details: lumbar cord tissue 48 hours after intrathecal administration, vs physiological saline
# Procedure: (§3) Rat tissue fixation was performed by perfusion under deep anesthesia with intraperitoneal pentobarbital. For the fixation, 0.1 M phosphate buffer was perfused, followed by a 4% PFA solution (a solution of 4% paraformaldehyde (Nacalai Tesque) in 0.1 M phosphate buffer). After the perfusion-fixation, the lumbar enlargement of the spinal cord was dissected, immersed in a 4% PFA solution and further fixed for 6 hours. The 4% PFA solution was replaced with a solution of 30% sucrose (Nacalai Tesque) in 0.1 M phosphate buffer before incubation with agitation at 4° C. for two consecutive days. The lumbar cord tissue was embedded in OCT compound (Sakura Finetek Japan Co., Ltd.), frozen and sliced to a thickness of 20 μm with a cryostat, and the resulting section was mounted onto a slide glass (Matsunsmi Glass Ind., Ltd.). The specimen was immersed in a 5% BSA solution (a solution of 5% BSA (bovine serum albumin, Sigma-Aldrich) in 0.1 M phosphate buffer) at room temperature for 2 hours. The 5% BSA solution was replaced with a 5% BSA solution containing a primary antibody, and the reaction was allowed to proceed at 4° C. for two consecutive days. […] After washing with 0.1 M phosphate buffer 3 times, the specimen was coverslipped with a mounting medium and then observed under a fluorescence microscope. […]
# [2] = system: neurons in the dorsal horn of the spinal cord (c-fos); experiment: Immunostaining of c-fos in lumbar cord tissue after intrathecal netrin-4; type: in vivo, rat; details: lumbar cord tissue 48 hours after intrathecal administration, vs physiological saline
# Procedure: as §3
molecule,measurement,setting,value
O=S(=O)(O)c1ccc2cc(N=Nc3cc(S(=O)(=O)O)c4cccnc4c3O)ccc2c1 [NSC87877],change in withdrawal threshold after administration of mixture with netrin-4,SHP2,"reduction in withdrawal threshold was observed in the group of administration of netrin-4 alone, but not"
same,degree of reduction in withdrawal threshold at 24 hours after administration,SHP2,significantly curbed
"CC(C)(c1ccc(NS(=O)(=O)C(F)(F)F)cc1)c1ccc(C(C)(C)c2ccc(NS(=O)(=O)C(F)(F)F)cc2)cc1 [PTPi4, bis(4-trifluoromethylsulfonamidophenyl)-1,4-diisopropylben zene]",change in withdrawal threshold after administration of mixture with netrin-4,SHP2,"reduction in withdrawal threshold was observed in the group of administration of netrin-4 alone, but not"
same,degree of reduction in withdrawal threshold at 24 hours after administration,SHP2,significantly curbed
B1,change in withdrawal threshold (von Frey filament test),"male Wistar rat; intrathecal 10 μL of 40 ng/μL, 12, 24 and 48 hours after administration","significant reduction in the netrin-4-administered rats versus the control group at 12, 24 and 48 hours after the administration; also recorded: reduction in withdrawal threshold was observed"
same,degree of change in withdrawal threshold from before to 24 hours after administration,male Wistar rat; intrathecal 10 μL of 1% netrin-4 solution (0.4 ng/μL),no significant reduction was observed
same,degree of change in withdrawal threshold from before to 24 hours after administration,male Wistar rat; intrathecal 10 μL of 10% netrin-4 solution (4 ng/μL),reduction in withdrawal threshold was observed
same,"cell morphology and spinal distribution of Iba1, GFAP, CD3ε and CD45R positive cells",[1],No remarkable difference
same,number of c-fos-positive cells in the dorsal horn of the spinal cord,[2],increased as compared with that in the control group
B2,degree of change in withdrawal threshold from before to 24 hours after administration,male Wistar rat; intrathecal 10 μL of 40 ng/μL solution heat-treated at 100° C. for 10 minutes,did not reduce the withdrawal threshold
